{"source": "paper PMC3407194", "about": "“Viral Reverse Transcriptases Show Selective High Affinity Binding to DNA-DNA Primer-Templates that Resemble the Polypurine Tract”", "binders": {"B1": {"name": "Ty3 RNA PPT (DNA:RNA)", "?": "GAGCGCGCGGCC", "DNA": "CAGCGGCCGCGCGCTCAGG", "modifications": "strand 1 RNA, strand 2 DNA"}, "B2": {"name": "MuLV DNA PPT (dsDNA)", "DNA 1": "GCCTGCAGGTCGACTCTAGATAGTCTCCAGAAAAAGGGGGG", "DNA 2": "CATTCCCCCCTTTTTCTGGAGACTATCTAGAGTCGACCTGCAGGC"}, "B3": {"name": "TY3 DNA PPT (dsDNA)", "DNA 1": "GCCTGCAGGTCGACTCTAGAGACAACCCTGAGAGAGAGGAA", "DNA 2": "CATCTTCCTCTCTCTCAGGGTTGTCTCTAGAGTCGACCTGCAGGC"}, "B4": {"name": "Control-1 (DNA:RNA)", "?": "AAAAGAAAAGCGCGC", "DNA": "CAGTGCGCGCTTTTCTTTT", "modifications": "strand 1 RNA, strand 2 DNA"}, "B5": {"name": "AMV R12-3 (dsDNA)", "DNA 1": "GCCTGCAGGTCGACTCTAGACGGGCAGTGTAATGAAGGCCA", "DNA 2": "CTTCTGGCCTTCATTACACTGCCCGTCTAGAGTCGACCTGCAGGC"}, "B6": {"name": "MuLV R14-2 (dsDNA)", "DNA 1": "GCCTGCAGGTCGACTCTAGACACCAGGACATGATGGCAGGA", "DNA 2": "ATCTTCCTGCCATCATGTCCTGGTGTCTAGAGTCGACCTGCAGGC"}, "B7": {"name": "MuLV R14-1 (dsDNA)", "DNA 1": "GCCTGCAGGTCGACTCTAGAATAAGGAAGATCTGCGGGGGG", "DNA 2": "CTTTCCCCCCGCAGATCTTCCTTATTCTAGAGTCGACCTGCAGGC"}, "B8": {"name": "MuLV R14-3 (dsDNA)", "DNA 1": "GCCTGCAGGTCGACTCTAGAGAGATGTAGCGCATGAAGGTA", "DNA 2": "CTTCTACCTTCATGCGCTACATCTCTCTAGAGTCGACCTGCAGGC"}, "B9": {"name": "AMV R12-2 (dsDNA)", "DNA 1": "GCCTGCAGGTCGACTCTAGATCACAAAGACCGGCGGGGTAA", "DNA 2": "ATCTTTACCCCGCCGGTCTTTGTGATCTAGAGTCGACCTGCAGGC"}, "B10": {"name": "Ty3+3 RNA PPT (DNA:RNA)", "RNA": "CCUGAGCGCGCGGCC", "DNA": "CAGCGGCCGCGCGCTCAGG", "modifications": "strand 1 RNA, strand 2 DNA"}, "B11": {"name": "Control-2 (DNA:RNA)", "RNA": "AAUUCGAGCUCGGUA", "DNA": "CAGTTACCGAGCTCGAATT", "modifications": "strand 1 RNA, strand 2 DNA"}, "B12": {"name": "HIV DNA PPT (41/45) (dsDNA)", "DNA 1": "GCCTGCAGGTCGACTCTAGACTTTTTAAAAGAAAAGGGGGG", "DNA 2": "CAGTCCCCCCTTTTCTTTTAAAAAGTCTAGAGTCGACCTGCAGGC"}, "B13": {"name": "AMV DNA PPT (dsDNA)", "DNA 1": "GCCTGCAGGTCGACTCTAGAGCTTTTGCATAGGGAGGGGGA", "DNA 2": "CATTTCCCCCTCCCTATGCAAAAGCTCTAGAGTCGACCTGCAGGC"}}, "key": {"HIV RT [1]": {"target": "T1, HIV RT (HIV, UniProt P04585;P04585 588-1147;588-1027)", "test": "filter binding; no Mg2+; Primer extension: 50 mM Tris-HCl pH 8.0, 80 mM KCl, 6 mM MgCl2, 1 mM DTT, 0.1 mg/ml BSA, room temperature, 1 nM duplex; filter binding: Tris-HCl pH 8.0, 80 mM KCl, 1 mM DTT, without Mg2+ (wt) or 6 mM Mg2+ (E478Q), room temperature, 5 nM hybrid (Table 1 units nM inferred)", "settings": "protein: commercial, copies: 1;1, label: 5'-32P primer"}, "HIV RT [2]": {"target": "T1, HIV RT", "test": "primer extension with trap; 6 mM Mg2+; Primer extension: 50 mM Tris-HCl pH 8.0, 80 mM KCl, 6 mM MgCl2, 1 mM DTT, 0.1 mg/ml BSA, room temperature, 1 nM duplex; filter binding: Tris-HCl pH 8.0, 80 mM KCl, 1 mM DTT, without Mg2+ (wt) or 6 mM Mg2+ (E478Q), room temperature, 5 nM hybrid (Table 1 units nM inferred)", "settings": "protein: commercial; copies: 1;1; label: 5'-32P primer; 41 nt primer on 45 nt template, 5' overhang 4 nt (template)"}, "Ty3 RT": {"target": "T2, Ty3 RT (Ty3 retrotransposon, UniProt Q99315 536-1011)", "T2 sequence": "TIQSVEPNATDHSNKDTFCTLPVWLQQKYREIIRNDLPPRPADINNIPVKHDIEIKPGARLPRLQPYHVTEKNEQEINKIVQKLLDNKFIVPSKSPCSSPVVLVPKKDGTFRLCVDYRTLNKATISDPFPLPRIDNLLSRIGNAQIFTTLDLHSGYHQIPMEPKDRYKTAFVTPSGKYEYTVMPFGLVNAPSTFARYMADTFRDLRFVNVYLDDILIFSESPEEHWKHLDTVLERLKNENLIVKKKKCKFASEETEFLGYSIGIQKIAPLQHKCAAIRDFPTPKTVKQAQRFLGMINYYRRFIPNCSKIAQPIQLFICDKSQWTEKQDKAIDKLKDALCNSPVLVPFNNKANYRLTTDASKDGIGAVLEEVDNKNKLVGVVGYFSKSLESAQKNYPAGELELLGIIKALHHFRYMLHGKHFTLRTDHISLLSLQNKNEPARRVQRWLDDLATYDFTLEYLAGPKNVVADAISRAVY", "test": "primer extension with trap; 6 mM Mg2+; Primer extension: 50 mM Tris-HCl pH 8.0, 80 mM KCl, 6 mM MgCl2, 1 mM DTT, 0.1 mg/ml BSA, room temperature, 1 nM duplex; filter binding: Tris-HCl pH 8.0, 80 mM KCl, 1 mM DTT, without Mg2+ (wt) or 6 mM Mg2+ (E478Q), room temperature, 5 nM hybrid (Table 1 units nM inferred)", "settings": "protein: recombinant; label: 5'-32P primer; 41 nt primer on 45 nt template, 5' overhang 4 nt (template)"}, "AMV RT": {"target": "T3, AMV RT (avian myeloblastosis virus, UniProt Q83133;Q83133 6-577;6-864)", "T3 sequence 1": "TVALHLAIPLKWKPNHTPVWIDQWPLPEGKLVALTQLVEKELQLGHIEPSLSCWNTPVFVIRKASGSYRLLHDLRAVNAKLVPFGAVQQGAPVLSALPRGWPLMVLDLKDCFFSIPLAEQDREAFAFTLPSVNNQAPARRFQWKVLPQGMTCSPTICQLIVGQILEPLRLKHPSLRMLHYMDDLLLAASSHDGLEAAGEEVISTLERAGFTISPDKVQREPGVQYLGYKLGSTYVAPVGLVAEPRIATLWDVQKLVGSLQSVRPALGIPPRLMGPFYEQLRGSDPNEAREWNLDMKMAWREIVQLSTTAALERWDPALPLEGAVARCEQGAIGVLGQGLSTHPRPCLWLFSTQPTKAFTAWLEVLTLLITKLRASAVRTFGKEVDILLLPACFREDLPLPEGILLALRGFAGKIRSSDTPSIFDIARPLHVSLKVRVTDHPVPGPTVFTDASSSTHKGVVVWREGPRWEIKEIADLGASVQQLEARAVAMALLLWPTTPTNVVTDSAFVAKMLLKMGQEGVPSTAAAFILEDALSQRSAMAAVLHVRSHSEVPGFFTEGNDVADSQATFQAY", "T3 sequence 2": "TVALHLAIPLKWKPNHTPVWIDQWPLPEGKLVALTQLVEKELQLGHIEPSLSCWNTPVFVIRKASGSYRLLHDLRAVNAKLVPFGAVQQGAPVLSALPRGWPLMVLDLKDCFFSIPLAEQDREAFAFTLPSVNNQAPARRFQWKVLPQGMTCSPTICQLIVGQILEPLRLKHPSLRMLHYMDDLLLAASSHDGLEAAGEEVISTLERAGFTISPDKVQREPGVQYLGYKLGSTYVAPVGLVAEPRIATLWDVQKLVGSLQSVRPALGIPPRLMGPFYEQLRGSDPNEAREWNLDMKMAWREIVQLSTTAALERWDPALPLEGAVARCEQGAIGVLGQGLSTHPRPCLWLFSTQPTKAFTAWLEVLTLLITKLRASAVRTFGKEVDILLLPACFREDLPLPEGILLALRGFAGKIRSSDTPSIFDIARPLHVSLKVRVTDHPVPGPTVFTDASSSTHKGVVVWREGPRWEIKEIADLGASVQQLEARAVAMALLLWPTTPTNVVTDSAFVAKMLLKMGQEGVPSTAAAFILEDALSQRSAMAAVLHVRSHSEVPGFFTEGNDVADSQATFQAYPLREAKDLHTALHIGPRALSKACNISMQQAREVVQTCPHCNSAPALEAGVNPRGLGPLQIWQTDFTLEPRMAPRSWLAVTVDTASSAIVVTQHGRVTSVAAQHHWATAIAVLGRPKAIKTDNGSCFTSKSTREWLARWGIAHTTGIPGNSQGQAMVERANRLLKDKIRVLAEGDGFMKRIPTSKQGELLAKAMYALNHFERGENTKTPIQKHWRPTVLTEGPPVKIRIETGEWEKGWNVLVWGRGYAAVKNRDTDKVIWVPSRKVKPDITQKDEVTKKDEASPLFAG", "test": "primer extension with trap; 6 mM Mg2+; Primer extension: 50 mM Tris-HCl pH 8.0, 80 mM KCl, 6 mM MgCl2, 1 mM DTT, 0.1 mg/ml BSA, room temperature, 1 nM duplex; filter binding: Tris-HCl pH 8.0, 80 mM KCl, 1 mM DTT, without Mg2+ (wt) or 6 mM Mg2+ (E478Q), room temperature, 5 nM hybrid (Table 1 units nM inferred)", "settings": "protein: commercial; copies: 1;1; label: 5'-32P primer; 41 nt primer on 45 nt template, 5' overhang 4 nt (template)"}, "MuLV RT": {"target": "MuLV RT (Moloney murine leukemia virus, UniProt P03355 660-1330)", "test": "primer extension with trap; 6 mM Mg2+; Primer extension: 50 mM Tris-HCl pH 8.0, 80 mM KCl, 6 mM MgCl2, 1 mM DTT, 0.1 mg/ml BSA, room temperature, 1 nM duplex; filter binding: Tris-HCl pH 8.0, 80 mM K"}}, "data": [{"binder": "B1", "values": [{"measurement": "Kd", "setting": "HIV RT [1]; template 5' overhang 4 nt, 3' overhang 3 nt", "value": "2380 ± 840", "unit": "nM"}]}, {"binder": "B2", "values": [{"measurement": "Kd", "setting": "HIV RT [2]", "value": "3.5 ± 0.5", "unit": "nM"}, {"measurement": "Kd", "setting": "Ty3 RT", "value": "45 ± 4", "unit": "nM"}, {"measurement": "Kd", "setting": "AMV RT", "value": "2.6 ± 0.2", "unit": "nM"}, {"measurement": "Kd", "setting": "MuLV RT", "value": 12, "unit": "nM"}]}, {"binder": "B3", "values": [{"measurement": "Kd", "setting": "HIV RT [2]", "value": "57 ± 10", "unit": "nM"}, {"measurement": "Kd", "setting": "Ty3 RT", "value": "84 ± 26", "unit": "nM"}, {"measurement": "Kd", "setting": "AMV RT", "value": "12 ± 2", "unit": "nM"}, {"measurement": "Kd", "setting": "MuLV RT", "value": 46, "unit": "nM"}]}, {"binder": "B4", "values": [{"measurement": "Kd", "setting": "HIV RT [1]; 5' overhang 4 nt (template)", "value": "1760 ± 290", "unit": "nM"}]}, {"binder": "B5", "values": [{"measurement": "Kd", "setting": "AMV RT", "value": "6.8 ± 0.1", "unit": "nM"}]}, {"binder": "B6", "values": [{"measurement": "Kd", "setting": "MuLV RT", "value": 77, "unit": "nM"}]}, {"binder": "B7", "values": [{"measurement": "Kd", "setting": "MuLV RT", "value": 8.1, "unit": "nM"}]}, {"binder": "B8", "values": [{"measurement": "Kd", "setting": "MuLV RT", "value": 53, "unit": "nM"}]}, {"binder": "B9", "values": [{"measurement": "Kd", "setting": "AMV RT", "value": "3.5 ± 0.1", "unit": "nM"}]}, {"binder": "B10", "values": [{"measurement": "Kd", "setting": "HIV RT [1]; 5' overhang 4 nt (template), printed U opposite A", "value": "900 ± 205", "unit": "nM"}]}, {"binder": "B11", "values": [{"measurement": "Kd", "setting": "HIV RT [1]; 5' overhang 4 nt (template)", "value": "2610 ± 710", "unit": "nM"}]}, {"binder": "B12", "values": [{"measurement": "Kd", "setting": "HIV RT [2]", "value": "3.2 ± 0.2", "unit": "nM"}, {"measurement": "Kd", "setting": "Ty3 RT", "value": "53 ± 12", "unit": "nM"}, {"measurement": "Kd", "setting": "AMV RT", "value": "2.1 ± 0.4", "unit": "nM"}, {"measurement": "Kd", "setting": "MuLV RT", "value": 7.5, "unit": "nM"}]}, {"binder": "B13", "values": [{"measurement": "Kd", "setting": "HIV RT [2]", "value": "8.2 ± 2", "unit": "nM"}, {"measurement": "Kd", "setting": "Ty3 RT", "value": "58 ± 4", "unit": "nM"}, {"measurement": "Kd", "setting": "AMV RT", "value": "1 ± 0.1", "unit": "nM"}, {"measurement": "Kd", "setting": "MuLV RT", "value": 17, "unit": "nM"}]}]}
